Laboratory results as given in article PMC8809517, “Cofactor-independent RNA editing by a synthetic S-type PPR protein”.

T1: GFP-9S library array, motif 4 ND N98C;D124P (synthetic construct, N98C;D124P)
T1 chain: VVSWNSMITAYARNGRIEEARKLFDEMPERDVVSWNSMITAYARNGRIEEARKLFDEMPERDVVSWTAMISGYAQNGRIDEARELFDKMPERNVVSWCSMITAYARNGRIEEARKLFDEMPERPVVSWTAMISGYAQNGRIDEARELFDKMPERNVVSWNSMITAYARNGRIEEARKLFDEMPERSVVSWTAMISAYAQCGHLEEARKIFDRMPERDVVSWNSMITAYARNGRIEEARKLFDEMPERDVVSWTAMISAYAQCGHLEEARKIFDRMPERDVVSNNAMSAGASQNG

T2: GFP-9S library array, motif 4 ND N98W;D124T (synthetic construct, N98W;D124T)
T2 chain: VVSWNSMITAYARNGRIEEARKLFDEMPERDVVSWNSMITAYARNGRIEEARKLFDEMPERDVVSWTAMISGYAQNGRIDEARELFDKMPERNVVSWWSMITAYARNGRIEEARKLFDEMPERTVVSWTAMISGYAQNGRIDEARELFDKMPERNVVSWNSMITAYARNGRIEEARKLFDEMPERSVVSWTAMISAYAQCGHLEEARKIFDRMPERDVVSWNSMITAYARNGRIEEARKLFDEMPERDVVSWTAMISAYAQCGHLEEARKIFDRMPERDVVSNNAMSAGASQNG

T3: GFP-9S library array, motif 4 ND N98L;D124A (synthetic construct, N98L;D124A)
T3 chain: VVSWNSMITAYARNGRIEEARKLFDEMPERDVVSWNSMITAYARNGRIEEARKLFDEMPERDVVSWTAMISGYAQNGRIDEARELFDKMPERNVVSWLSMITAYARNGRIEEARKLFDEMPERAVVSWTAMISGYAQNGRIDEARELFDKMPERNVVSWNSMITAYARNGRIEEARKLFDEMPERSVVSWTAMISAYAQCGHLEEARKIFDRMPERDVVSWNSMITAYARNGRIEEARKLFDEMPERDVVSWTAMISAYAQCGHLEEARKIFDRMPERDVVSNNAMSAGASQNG

T4: GFP-9S library array, motif 4 ND N98Y;D124G (synthetic construct, N98Y;D124G)
T4 chain: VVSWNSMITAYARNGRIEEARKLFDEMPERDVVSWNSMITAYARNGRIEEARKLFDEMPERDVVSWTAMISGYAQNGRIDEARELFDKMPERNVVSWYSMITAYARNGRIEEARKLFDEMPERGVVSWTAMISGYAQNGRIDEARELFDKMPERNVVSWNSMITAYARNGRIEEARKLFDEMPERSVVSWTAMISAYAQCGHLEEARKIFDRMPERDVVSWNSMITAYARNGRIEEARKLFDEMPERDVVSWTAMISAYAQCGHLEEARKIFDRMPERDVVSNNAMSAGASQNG

T5: GFP-9S library array, motif 4 ND N98K;D124I (synthetic construct, N98K;D124I)
T5 chain: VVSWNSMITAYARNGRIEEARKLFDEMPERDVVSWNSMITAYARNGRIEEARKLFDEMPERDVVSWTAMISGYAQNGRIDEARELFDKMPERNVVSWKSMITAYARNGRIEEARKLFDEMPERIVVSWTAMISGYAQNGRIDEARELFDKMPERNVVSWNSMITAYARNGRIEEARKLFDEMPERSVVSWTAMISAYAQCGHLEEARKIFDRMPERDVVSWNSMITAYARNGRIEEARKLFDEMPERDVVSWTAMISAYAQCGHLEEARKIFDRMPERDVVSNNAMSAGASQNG


Experiments:
Test in all cases: high-throughput RNA pulldown from lysate on Ni-NTA beads; HRP: 50 mM Tris pH 8, 150 mM NaCl, 1 mM beta-mercaptoethanol, 50 ug/ml BSA, 3 ug/ml yeast RNA, 0.5% heparin; ITC and FP: Tris pH 8, 200 mM KCl, 5% glycerol; MST: 50 mM Tris pH 8, 200 mM NaCl, 1 mM DTT, BSA, heparin, 0.05% Tween 20
Conditions in all cases: tags: N-terminal His-eGFP
[1] = target: T1, GFP-9S library array, motif 4 ND …
[2] = target: T2, GFP-9S library array, motif 4 ND …
[3] = target: T3, GFP-9S library array, motif 4 ND …
[4] = target: T4, GFP-9S library array, motif 4 ND …
[5] = target: T5, GFP-9S library array, motif 4 ND …

| Binder | Kd ([1]; label: 5' Cy5) [nM] | Kd ([2]; label: 5' Cy5) [nM] | Kd ([3]; label: 5' Cy5) [nM] | Kd ([4]; label: 5' Cy5) [nM] | Kd ([5]; label: 5' Cy5) [nM] | Kd ([1]; label: 5' IRDye 800CW) [nM] | Kd ([2]; label: 5' IRDye 800CW) [nM] | Kd ([3]; label: 5' IRDye 800CW) [nM] | Kd ([4]; label: 5' IRDye 800CW) [nM] | Kd ([5]; label: 5' IRDye 800CW) [nM] |
| --- | --- | --- | --- | --- | --- | --- | --- | --- | --- | --- |
| AUUAGACGUGA (ssRNA) [Cy5-rpoA-G] | 321 | 50.4 | 71.4 | 177 | 167 | – | – | – | – | – |
| AUUAAACGUGA (ssRNA) [IR-rpoA-A] | – | – | – | – | – | 263 | 76.1 | 90.9 | 567 | 560 |
| AUUAUACGUGA (ssRNA) [IR-rpoA-U] | – | – | – | – | – | 351 | 59.1 | 43.4 | 211 | 252 |
| AUUACACGUGA (ssRNA) [Cy5-rpoA] | 272 | 38.5 | 47.4 | 183 | 130 | – | – | – | – | – |
